Test results published in patent US20260021193A1 (IMMUNOME, published 2026).

Legend:
[1] = molecular target: T1, human ROR-1 endogenously expressed on JeKo-1 and MDA-MB-468 cells (human, UniProt Q01973 30-937); assay: cell-based or functional assay
[2] = molecular target: T2, Hu/Cy/Rh ROR1 - His (Human/Cyno/Rhesus, UniProt Q01973 30-403, limits assumed); assay: SPR, purified Hu/Cy/Rh ROR1-His
T2 construct: Purified His-tagged ROR1 protein used in SPR; also called Human/Cyno/Rhesus ROR-1; not shown: His tag

[3] = molecular target: T1, human ROR-1 endogenously expressed on …; assay: flow cytometry: titration of the antibody on ROR-1 positive JeKo-1 cells, secondary antibody staining, Net MFI
[4] = molecular target: T1, human ROR-1 endogenously expressed on …; assay: as above; remark: listed apart in the source
Protocol: Cells were washed, stained with secondary antibody and cell binding saturation was detected by flow cytometry and reported as mean fluorescent intensity (MFI).
A cell binding saturation assay was developed to evaluate how well the anti-ROR-1 antibodies developed in Example 22 bound to endogenously expressed extracellular ROR-1 protein on cell lines. […] Cells were then washed and subjected to secondary antibody staining and detection by flow cytometry. Mean fluorescence (MFI) was determined by analysis on cytometer software. […] (See FIGS. 27A-27B).

[5] = molecular target: T1, human ROR-1 endogenously expressed on …; assay: cell-based or functional assay; remark: listed apart in the source
[6] = molecular target: T1, human ROR-1 endogenously expressed on …; assay: flow cytometry (cellular binning): titration of the antibody on MDA-MB-468 cells, fluorescently labeled secondary antibody, % Top MFI
Protocol: (§1) Next, the anti-ROR-1 antibodies were fluorescently labeled with a secondary antibody.
(§2) In Step 2, a fluorescently labeled secondary antibody recognizing the novel antibodies was incubated with the samples.

[7] = molecular target: T1, human ROR-1 endogenously expressed on …; assay: as above; remark: listed apart in the source
Protocol: as §1, §2

[8] = molecular target: T1, human ROR-1 endogenously expressed on …; assay: flow cytometry competition (cellular binning) on MDA-MB-468 cells: cells coated with titrated ATX-P-875, then a saturating dose of the labeled competitor 4A5-PE, whose signal is plotted in % Top MFI
Protocol: as §1, §2

[9] = molecular target: T3, Mouse ROR1 - His (Mouse, UniProt Q9Z139 30-403, limits assumed); assay: SPR, purified Mouse ROR1-His
T3 construct: Purified His-tagged mouse ROR1 protein used in SPR; not shown: His tag

[10] = molecular target: T1, human ROR-1 endogenously expressed on …; assay: flow cytometry (cellular binning): titration of the antibody on MDA-MB-468 cells, fluorescently labeled secondary antibody, % Top MFI; remark: listed apart in the source
Protocol: as §1, §2

[11] = molecular target: T1, human ROR-1 endogenously expressed on …; assay: flow cytometry competition (cellular binning) on MDA-MB-468 cells: cells coated with titrated ATX-P-885, then a saturating dose of the labeled competitor Dy650-UC961, whose signal is plotted in % Top MFI
Protocol: as §1, §2

[12] = molecular target: T2, Hu/Cy/Rh ROR1 - His; assay: SPR (Carterra), cell 'Kinetics (KD)' in the head and in the left column of the binning table, antigen Hu/Cy/Rh ROR1-His; no unit stands on the sheet, M is taken from Table 3, where the same KD values of the other four antibodies stand under KD (M)

T3 sequence (Q9Z139 30-403 limits assumed): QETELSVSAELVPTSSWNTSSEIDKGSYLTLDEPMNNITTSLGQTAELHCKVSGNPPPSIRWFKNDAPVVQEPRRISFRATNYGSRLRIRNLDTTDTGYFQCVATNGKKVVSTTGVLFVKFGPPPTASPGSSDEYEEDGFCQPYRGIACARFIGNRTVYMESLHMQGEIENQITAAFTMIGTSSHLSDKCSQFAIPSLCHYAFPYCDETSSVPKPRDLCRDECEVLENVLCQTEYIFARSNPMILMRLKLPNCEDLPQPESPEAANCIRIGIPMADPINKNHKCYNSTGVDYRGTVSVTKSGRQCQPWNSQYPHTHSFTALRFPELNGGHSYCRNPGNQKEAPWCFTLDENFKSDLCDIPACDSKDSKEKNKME

B1: UC-961 (ATX-P-453) (antibody, V domains shown)
VH: QVQLQESGPGLVKPSQTLSLTCTVSGYAFTAYNIHWVRQAPGQGLEWMGSFDPYDGGSSYNQKFKDRLTISKDTSKNQVVLTMTNMDPVDTATYYCARGWYYFDYWGHGTLVTVSS
VL: DIVMTQTPLSLPVTPGEPASISCRASKSISKYLAWYQQKPGQAPRLLIYSGSTLQSGIPPRFSGSGYGTDFTLTINNIESEDAAYYFCQQHDESPYTFGEGTKVEIK
With B1 the “JeKo-1 (%) cellular internalization” value [1] was 75%, the “MDA-MB-468(%) cellular internalization” value [1] was 80% and the Kd [2] was 4.69 nM. The koff [2] was 0.00591 s⁻¹, the kon [2] was 1.26e+06 M⁻¹ s⁻¹ and the “EC50 (read off the curve)” value [3] was roughly 0.02 nM. For the same binder, the “EC50 (read off the curve)” value [4] was roughly 0.1 nM.

B2: ATX-P-875 (antibody, V domains shown)
VH: not shown
VL: DIQMTQSPSSLSASVGDRVTITCRASQSISSYLNWYQQKPGKAPKLLIYAASSLQSGVPSRFSGSGSGTDFTLTISSLQPEDFATYYCQQYDNLPITFGQGTRLEIKR
With B2 the “ROR-1 receptor internalization on JeKo-1 and MDA-MB-468 cells (reduction of surface antibody over 4 hours, flow cytometry)” value [5] was no less than 75%, the “JeKo-1 (%) cellular internalization” value [1] was 75% and the “MDA-MB-468(%) cellular internalization” value [1] was 89%. The “EC50 (read off the curve)” value [6] was roughly 0.9 nM, the “EC50 (read off the curve)” value [7] was roughly 0.5 nM and the “IC50 (read off the curve)” value [8] was roughly 0.7 nM.

B3: ATX-P-885 (antibody, V domains shown)
VH: QVQLQQWGAGLLKPSETLSLTCAVYGGSFSGYYWSWIRQPPGKGLEWIGEINHSGSTNYNPSLKSRVTISVDTSKNQFSLKLSSVTAADTAVYYCAREGVYEDYWGQGTLVTVSS
VL: EIVLTQSPATLSLSPGERATLSCRASQSVSNYLAWYQQKPGQAPRLLIYDAYNRATGIPARFSGSGSGTDFTLTISSLEPEDFAVYYCQQRSNWPLTFGQGTRLEIKR
For B3, the “ROR-1 receptor internalization on JeKo-1 and MDA-MB-468 cells (reduction of surface antibody over 4 hours, flow cytometry)” value [5] was no less than 75%, the “JeKo-1 (%) cellular internalization” value [1] was 75% and the “MDA-MB-468(%) cellular internalization” value [1] was 89%. The Kd [9] was 45.3 nM, the koff [9] was 0.00132 s⁻¹ and the kon [9] was 29200 M⁻¹ s⁻¹. For the same binder, the Kd [2] was 10.9 nM, the koff [2] was 0.00295 s⁻¹ and the kon [2] was 270000 M⁻¹ s⁻¹. The “EC50 (read off the curve)” value [4] was roughly 0.3 nM, the “EC50 (read off the curve)” value [6] was roughly 3 nM and the “EC50 (read off the curve)” value [10] was roughly 2 nM. For the same binder, the “IC50 (read off the curve)” value [11] was roughly 3 nM.

B4: 4A5 (antibody, V domains shown)
VH: EVKLVESGGGLVKPGGSLKLSCAASGFTFSSYAMSWVRQIPEKRLEWVASISRGGTTYYPDSVKGRFTISRDNVRNILYLQMSSLRSEDTAMYYCGRYDYDGYYAMDYWGQGTSVTVSS
VL: DIKMTQSPSSMYASLGERVTITCKASPDINSYLSWFQQKPGKSPKTLIYRANRLVDGVPSRFSGGGSGQDYSLTINSLEYEDMGIYYCLQYDEFPYTFGGGTKLEMK
A Kd [12] of 2.81 nM was found for B4 in this work.
